The target in one data set is T1, CsBGL (Chryseobacterium scophthalmum, UniProt A0A8A3WQK4).
T1 construct: gene bgl
T1 sequence (A0A8A3WQK4 19-775): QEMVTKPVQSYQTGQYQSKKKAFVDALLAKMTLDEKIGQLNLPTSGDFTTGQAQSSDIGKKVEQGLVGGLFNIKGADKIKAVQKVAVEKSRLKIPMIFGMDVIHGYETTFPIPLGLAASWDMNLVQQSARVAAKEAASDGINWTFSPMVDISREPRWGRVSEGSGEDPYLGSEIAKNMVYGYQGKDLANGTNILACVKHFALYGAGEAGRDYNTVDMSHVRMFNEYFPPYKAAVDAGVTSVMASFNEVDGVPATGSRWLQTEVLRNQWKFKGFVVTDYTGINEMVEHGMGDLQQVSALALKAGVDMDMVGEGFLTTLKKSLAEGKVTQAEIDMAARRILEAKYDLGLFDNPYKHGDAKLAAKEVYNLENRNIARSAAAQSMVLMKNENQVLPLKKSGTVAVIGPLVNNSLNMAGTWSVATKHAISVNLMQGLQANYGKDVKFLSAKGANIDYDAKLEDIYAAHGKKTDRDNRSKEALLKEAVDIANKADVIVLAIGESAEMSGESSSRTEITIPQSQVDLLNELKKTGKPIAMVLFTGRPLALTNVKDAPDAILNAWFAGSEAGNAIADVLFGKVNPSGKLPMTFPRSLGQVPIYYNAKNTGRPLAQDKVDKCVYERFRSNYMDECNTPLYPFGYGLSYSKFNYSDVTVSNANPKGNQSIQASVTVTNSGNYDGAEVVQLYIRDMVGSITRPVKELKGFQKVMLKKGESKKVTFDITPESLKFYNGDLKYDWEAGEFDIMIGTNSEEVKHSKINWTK
Nature of the data set: inhibition of pNP-β-Glc hydrolysis, p-nitrophenol at […] nm. The format is biochemical. The following applies: substrate pNP-β-Glc 0.1–10 mM, glucose 0–80 mM, 50 mM sodium phosphate pH 7.4, 45 °C; mode not stated.

Substrate in the data set “purified protein”: O=[N+]([O-])c1ccc(O[C@@H]2O[C@H](CO)[C@@H](O)[C@H](O)[C@H]2O)cc1
Nature of the data set: purified protein. The format is biochemical, Chryseobacterium scophthalmum. The settings on record: 50 mM sodium phosphate pH 7.4, 45 °C.

Substrate in data set [1]: C=C1C[C@@]23CC[C@H]4[C@@](C)(CCC[C@@]4(C)C(=O)O[C@@H]4O[C@H](CO)[C@@H](O)[C@H](O)[C@H]4O)[C@@H]2CC[C@]1(O[C@@H]1O[C@H](CO)[C@@H](O)[C@H](O)[C@H]1O[C@@H]1O[C@H](CO)[C@@H](O)[C@H](O)[C@H]1O)C3
Nature of the data set: initial velocity of stevioside hydrolysis. The format is biochemical, Chryseobacterium scophthalmum. The settings on record: 50 mM sodium phosphate pH 6.5, 47.5 °C.

Among the data in article PMC8546341, “A Novel β-Glucosidase From Chryseobacterium scophthalmum 1433 for Efficient Rubusoside Production From Stevioside” (Frontiers in Microbiology, 2021) are Ki, Km and kcat values, retold here.

In turn, `OC[C@H]1OC(O)[C@H](O)[C@@H](O)[C@@H]1O` (some centres unmarked) [glucose] showed a Ki on CsBGL of 16.4 mM.

B1: CsBGL (Chryseobacterium scophthalmum) (protein)
chain: QEMVTKPVQSYQTGQYQSKKKAFVDALLAKMTLDEKIGQLNLPTSGDFTTGQAQSSDIGKKVEQGLVGGLFNIKGADKIKAVQKVAVEKSRLKIPMIFGMDVIHGYETTFPIPLGLAASWDMNLVQQSARVAAKEAASDGINWTFSPMVDISREPRWGRVSEGSGEDPYLGSEIAKNMVYGYQGKDLANGTNILACVKHFALYGAGEAGRDYNTVDMSHVRMFNEYFPPYKAAVDAGVTSVMASFNEVDGVPATGSRWLQTEVLRNQWKFKGFVVTDYTGINEMVEHGMGDLQQVSALALKAGVDMDMVGEGFLTTLKKSLAEGKVTQAEIDMAARRILEAKYDLGLFDNPYKHGDAKLAAKEVYNLENRNIARSAAAQSMVLMKNENQVLPLKKSGTVAVIGPLVNNSLNMAGTWSVATKHAISVNLMQGLQANYGKDVKFLSAKGANIDYDAKLEDIYAAHGKKTDRDNRSKEALLKEAVDIANKADVIVLAIGESAEMSGESSSRTEITIPQSQVDLLNELKKTGKPIAMVLFTGRPLALTNVKDAPDAILNAWFAGSEAGNAIADVLFGKVNPSGKLPMTFPRSLGQVPIYYNAKNTGRPLAQDKVDKCVYERFRSNYMDECNTPLYPFGYGLSYSKFNYSDVTVSNANPKGNQSIQASVTVTNSGNYDGAEVVQLYIRDMVGSITRPVKELKGFQKVMLKKGESKKVTFDITPESLKFYNGDLKYDWEAGEFDIMIGTNSEEVKHSKINWTK
Turning to B1, in “purified protein”, the Km is 1.62 mM and the kcat is 16.77 s⁻¹. In data set [1], the Km amounted to 1.54 mM and the kcat came to 248.59 s⁻¹.

For orientation: Ki means the dissociation constant of the complex between target and ligand, obtained from inhibition or displacement. The low end stands for a stronger hold on the target, the high end for a looser hold on the target. The Km is the concentration of substrate that gives half-maximal velocity. In general, kcat refers to the maximal rate divided by the concentration of active sites.
